One test addresses T1, angiotensin-II receptor (Homo sapiens, UniProt P30556).
T1 construct: cell membranes obtained from human neuroblastoma cells (KAN-TS); endogenous in cells; host or cells: KAN-TS human neuroblastoma cells (membranes)
T1 sequence (P30556 1-359): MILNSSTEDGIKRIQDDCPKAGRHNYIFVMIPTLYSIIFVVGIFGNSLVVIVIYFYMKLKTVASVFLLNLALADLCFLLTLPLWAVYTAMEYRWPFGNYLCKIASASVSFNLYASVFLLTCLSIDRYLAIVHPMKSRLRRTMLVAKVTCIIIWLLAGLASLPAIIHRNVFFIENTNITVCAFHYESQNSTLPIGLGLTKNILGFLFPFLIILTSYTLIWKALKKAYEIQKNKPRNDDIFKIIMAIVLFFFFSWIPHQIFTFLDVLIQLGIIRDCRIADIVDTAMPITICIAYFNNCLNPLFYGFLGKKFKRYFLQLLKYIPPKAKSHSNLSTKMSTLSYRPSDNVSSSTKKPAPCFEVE
Put plainly: 125I-Tyr4,Sar1,Ile8-Angiotensin II binding inhibition, human neuroblastoma (KAN-TS) cell membranes. As to conditions: 1 μM; KAN-TS cell membranes; Re-complexed. As for the experimental part: The screening of compounds for binding to the angiotensin-II receptor was performed using cell membranes obtained from human neuroblastoma cells (KAN-TS). The assay was performed in triplicates, generally as described in Example 4 for oxytocin, except for measurement of receptor bound radioactivity. For angiotensin, a radioiodinated tracer ligand was used (instead of a tritiated ligand), which radioiodinated tracer facilitated direct measurement of bound radioactivity using a gamma counter. A final 1-3 nM concentration of ^125I-Tyr^4, Sar^1, Ile^8-Angiotensin II ligand (obtained from Perkin Elemer-NEN Life Sciences) was used as radiotracer and angiotensin-II (1 μM final assay concentration) was used to measure non-specific binding. After filtration of the incubation medium, followed by washings, drying the filters and punching the filters into test tubes, the filters were counted for radioactivity in a gamma counter. An activity profile for the test compounds was generated by ability to inhibit specific binding of the radiotracer to its receptor.

For a further test, the target named is T2, MC1-R (Mus musculus, UniProt Q01727).
T2 construct: B-16 mouse melanoma cells (containing MC1-R); endogenous in cells; host or cells: B-16 mouse melanoma cells (membranes)
Put plainly: Competitive inhibition of 125I-NDP-alpha-MSH binding, B-16 mouse melanoma cell membranes. From the text: (§1) Ac-Nle-Ala-His-D-Phe-Arg-Trp-NH2 is a known receptor-binding sequence for melanotropin receptors. […] A series of metallopeptides based on this sequence were synthesized by inserting a Cys residue after the 2 position and through the n+1 position and complexing the resulting Cys-containing peptide with an Re-oxo metal ion core as described Example 1. The resulting metallopeptides were screened for inhibiting the binding of 125-I-NDP-alpha-MSH radioligand using B-16 mouse melanoma cells for MCR-1 and cloned human MCR-2, -3 and -4 receptor transfected 293 cells.
(§2) The competitive inhibition binding assay was conducted using membranes prepared from hMC3-R, hMC4-R, hMC5-R, and B-16 mouse melanoma cells (containing MC1-R) using 0.4 nM ^125I-NDP-alpha-MSH (New England Nuclear, Boston, Mass., USA) in 50 mM HEPES buffer containing 1 mM MgCl2, 2 mM CaCl2, and 5 mM KCl, at pH 7.2. The assay tube also contained a chosen concentration of the test peptide of this invention, complexed to a rhenium metal ion as indicated, for determining its efficacy in inhibiting the binding of ^125I-NDP-alpha-MSH to its receptor. […] The filter was dried and counted in a gamma counter for remaining radioactivity bound to the membranes. 100% specific binding was defined as the difference in radioactivity (cpm) bound to cell membranes in the absence and presence of 1 μM alpha-MSH. […]

The next test addresses T3, hMC4-R (Homo sapiens, UniProt P32245).
T3 construct: expressed in transfected cells; host or cells: 293 cells
Put plainly: Competitive inhibition of 125I-NDP-alpha-MSH binding, hMC4-R membranes.
Text: as §1, §2

A further test has as its target T4, uPA receptor (Homo sapiens, UniProt Q03405).
T4 construct: endogenous in cells; host or cells: U937 cells
Put plainly: uPA receptor-binding assay using U937 cells and ATF as competitive ligand. As to conditions: within the Table 1 series.

Square brackets hold non-standard residues; d marks the D form. Ends that are not written are not given here. Peptide text beside a SMILES is read from it. Nle = CCCC[C@H](N)C(=O)O; Sar = CNCC(=O)O

T3 sequence (P32245 whole entry): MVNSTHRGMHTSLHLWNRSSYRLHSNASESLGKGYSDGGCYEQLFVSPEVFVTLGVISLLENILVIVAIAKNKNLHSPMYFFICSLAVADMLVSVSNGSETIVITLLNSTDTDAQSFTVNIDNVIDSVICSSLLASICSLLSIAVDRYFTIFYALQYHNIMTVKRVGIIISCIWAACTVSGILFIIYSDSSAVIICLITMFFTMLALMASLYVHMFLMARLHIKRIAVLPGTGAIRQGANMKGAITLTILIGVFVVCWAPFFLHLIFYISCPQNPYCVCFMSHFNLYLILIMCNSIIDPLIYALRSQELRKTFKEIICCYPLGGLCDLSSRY
T2 sequence (Q01727 whole entry): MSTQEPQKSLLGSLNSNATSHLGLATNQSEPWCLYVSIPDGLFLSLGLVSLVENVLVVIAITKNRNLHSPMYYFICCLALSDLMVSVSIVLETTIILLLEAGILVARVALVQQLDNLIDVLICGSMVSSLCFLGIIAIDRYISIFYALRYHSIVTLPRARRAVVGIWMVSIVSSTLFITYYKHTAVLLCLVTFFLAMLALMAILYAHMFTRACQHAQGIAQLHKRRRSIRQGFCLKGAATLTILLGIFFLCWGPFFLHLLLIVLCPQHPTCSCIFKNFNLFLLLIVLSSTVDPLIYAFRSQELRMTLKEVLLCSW
T4 sequence (Q03405 23-305): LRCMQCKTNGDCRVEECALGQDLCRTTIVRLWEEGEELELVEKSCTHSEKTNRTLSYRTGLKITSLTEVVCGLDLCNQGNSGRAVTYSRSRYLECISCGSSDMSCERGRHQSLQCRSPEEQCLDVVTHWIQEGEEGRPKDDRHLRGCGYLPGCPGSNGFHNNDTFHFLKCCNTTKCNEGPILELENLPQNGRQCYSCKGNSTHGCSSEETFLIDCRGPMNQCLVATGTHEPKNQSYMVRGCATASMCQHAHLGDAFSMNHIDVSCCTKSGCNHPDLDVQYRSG

In the case of “Sar-Arg-Cys-Val-Tyr-Ile-His-Pro-Thr ([Sar]RCVYIHPT; not fully specified (bridges); printed as Sar-Arg-Cys-Val-Tyr-Ile-His-Pro-Thr; also: oxorhenium(V) N3S1 metal chelate (Re=O)) [SEQ ID NO:165]”, the % Inhibition (commonly the share of the control response that was lost under treatment) at 1 μM (Angiotensin Receptor) in the test with angiotensin-II receptor came out at 1%. Turning to `CCCC[C@H](NC(C)=O)C(=O)N[C@@H](C)C(=O)N[C@@H](Cc1c[nH]cn1)C(=O)N[C@H](Cc1ccccc1)C(=O)N[C@@H](CCCNC(=N)N)C(=O)N[C@@H](Cc1c[nH]c2ccccc12)C(N)=O` [Ac-Nle-Ala-His-D-Phe-Arg-Trp-NH2] (Ac-[Nle]AH[dF]RW-NH2), the inhibition constant Ki (commonly a measure of affinity in units of concentration, obtained from inhibition or displacement) on MC1-R came to 100 nM; at hMC4-R, 2000 nM. For “Ac-Val-Ser-Asn-Lys-Tyr-Phe-Ser-Asn-Ile-His-Cys-Trp-NH2 (Ac-VSNKYFSNIHCW-NH2; not fully specified (bridges); printed as Ac-Val-Ser-Asn-Lys-Tyr-Phe-Ser-Asn-Ile-His-Cys-Trp-NH2; also: oxorhenium(V) N3S1 metal chelate (Re=O)) [SEQ ID NO: 3]”, the “relative potency in uPA receptor binding” value in the test with uPA receptor was “most potent of all these molecules”.
